The target of test [1] is recombinant human MMP-9/NGAL complex (human) (UniProt P14780). Briefly: ELISA (Quantikine, R&D Systems). (An ELISA detects its analyte on a solid surface through an enzyme-linked reagent.)
Test [2] concerns the target human CNP-53 (AA 51-103) (human) (UniProt P23582). Put plainly: radioimmunoassay.
In test [3] the target is human CNP-22 (AA 82-103) (human) (UniProt P23582). Briefly: radioimmunoassay.
For test [4], the target named is BNP (Homo sapiens (Human)) (UniProt P16860). Put plainly: radioimmunoassay, competition with I125-labeled CNP.
Test [5] has as its target ANP (Homo sapiens (Human)) (UniProt P01160). Described as above.
The target of test [6] is adrenomedullin (Homo sapiens (Human)) (UniProt P35318). Described as above.
Test [7] concerns the target human CNP-53 (AA 51-103) (human) (UniProt P23582). The description is as above.
The target in another test is endothelin. The test is described as above.

Where only a bound is given, the exact number is not on record here.

“NGAL enzyme-linked immunoassay (Quantikine ELISA, R&D Systems) (tool reagent)”: the cross-reactivity in test [1] was determined as 0.3%.

For the substance “antibody that detects human CNP-22, non-equilibrium radioimmunoassay kit from Phoenix Pharmaceutical (Example 2) (tool reagent)”, in test [2], the cross-reactivity was found to be 59%.

In test [3], “antibody that detects human CNP-53, non-equilibrium radioimmunoassay kit from Phoenix Pharmaceutical (tool reagent)” displayed a cross-reactivity of 100%.

For “antibody to human CNP-22 of the non-equilibrium radioimmunoassay kit from Phoenix Pharmaceutical (Example 1) (tool reagent)”, the cross-reactivity in test [4] was < 1%; in test [5], < 1%; in test [6], < 1%; in test [7] it was 97%; with endothelin, < 1%.
